Measured values as given in patent US20060275823A1 (published 2006).

Target: T1, ICS (pro-IL-1beta-derived epitope)
T1 construct: also called ICS peptide; 14-mer called ICS
T1 peptide: NEAYVHDGPVRSLN
Assay: method not stated; measured in a different context from the cleavage assay, with LEPB lacking a free N-terminus

B1: LEPB (peptide)
peptide: KARKEAELAAATAEQ
notes: In the ICE cleavage experiment it was a synthetic peptide with a free N-terminus; also called synthetic LEPB; 15mer (LEPB)
- Kd: 2000 nM
